According to the supplement of paper PMC12764529:
± gives the half width of the 95% confidence interval.

Tests used:
[1] = folding stability dG unfold from trypsin proteolysis; higher = more stable
Summary of the method: (§1)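 Only designs with AlphaFold2 dimer inter-PAE above 15 were retained; each was a mini-protein under 80 residues with no cysteine, in a PA-tagged cDNA display construct. After digestion with trypsin and chymotrypsin and sequencing, K50 was inferred by Bayesian fitting of counts, and unfolding free energy was derived per protease or combined against a sequence-predicted unfolded-state K50 and a shared folded-state K50.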

[2] = folding stability dG unfold from chymotrypsin proteolysis; higher = more stable
Summary of the method: as §1

[3] = folding stability dG unfold (combined trypsin and chymotrypsin); higher = more stable
Summary of the method: as §1

| Sequence | folding stability dG unfold [1] [kcal/mol] | folding stability dG unfold [2] [kcal/mol] | folding stability dG unfold [3] [kcal/mol] |
| --- | --- | --- | --- |
| SAGGSAGGDKAVIVDFNPIEPEAVIYFPKTGKAIKFKFDSLEELRDSIEPSGIPVEIVITPPELSAGGSAGG [r6_27_TrMRF] | -0.138 ± 0.19 | 0.196 ± 0.25 | 0.141 ± 0.19 |
| SAGGSAGGDPNDKPMKFELIETFTIPGNLNEAKDFLEDLLPPNWAINVEQEPGMITITIYKMKDSAGGSAGG [r6_953_TrROS] | 1.78 ± 0.17 | 2.23 ± 0.073 | 2.22 ± 0.2 |
| SAGGSAGGDRIKIRFPDYRYEIEIPPGIESITTIQFHKDGWFTLTIPGNGQQIKIPIPPPDDDPSAGGSAGG [r6_370_TrROS] | 1.23 ± 0.057 | 1.73 ± 0.15 | 1.51 ± 0.24 |
| SAGGSAGGDTLTIVVEGMSAEELAALLKELFPDAEVTVTEVGEPRLVTVTVTVKVETEFELPEESAGGSAGG [r6_607_TrROS_Hall] | 2.13 ± 0.099 | 2.36 ± 0.087 | 2.28 ± 0.1 |
| SAGGSAGGEEEELTEEERRELERRRRRLEEERRRRRPPRPRLRLTLTVRLPDGSTVTLEVEIRLSAGGSAGG [r6_844_TrROS_Hall] | 2.2 ± 0.061 | 3.73 ± 0.056 | 3.16 ± 0.14 |
| SAGGSAGGEEEYYEIEIVLPKEKAEEILEELKKKLPEGWEIVSVEVVEVDEDGYVRLRIVVKRTSAGGSAGG [r6_340_TrROS_Hall] | 5.01 ± 0.53 | 4.21 ± 0.14 | 4.52 ± 0.3 |
| SAGGSAGGEEIAKKLRDLAKKLGLDVEIKKIEVTKYPLPEGDENKEEKWVTTITITVNGKKITLSAGGSAGG [r6_686_TrROS_Hall] | 2.22 ± 0.053 | 2.53 ± 0.061 | 2.37 ± 0.081 |
| SAGGSAGGEELAKRLKELFPNAKIVEIKYDKKTKKVTIKVELEPGMSEEQRERLRKLLEELLKKSAGGSAGG [r6_97_TrROS_Hall] | 3.13 ± 0.17 | 2.85 ± 0.099 | 3.07 ± 0.15 |
| SAGGSAGGEIKAKVPYEKYPKYYKVKVEIYDPNTKKKIEYEALFPKGTKISAEEIAKKIVKKIKSAGGSAGG [r6_233_TrMRF] | 0.876 ± 0.086 | 1.54 ± 0.085 | 1.26 ± 0.24 |
| SAGGSAGGEIPADAEIEEFEFGGKPYFLVRFPDGTAALYERKGDKWELIATVPVPPDSRIFFKGSAGGSAGG [r6_475_TrMRF] | 0.946 ± 0.037 | 1.19 ± 0.086 | 1.12 ± 0.041 |
| SAGGSAGGEIRERLRELIEQLPEEELVVRIRRNGEEVELTFRTREDLEAALEANPEAEIEIVRRSAGGSAGG [r6_421_TrROS_Hall] | 2.02 ± 0.023 | 3.35 ± 0.037 | 3 ± 0.058 |
| SAGGSAGGEISFDPETGKLTILAPSSISPDAIKKAIEEAGIPFKITSVSYIPDPKTLKVEYEISSAGGSAGG [r6_395_TrMRF] | 0.841 ± 0.025 | 0.249 ± 0.29 | 0.719 ± 0.19 |
| SAGGSAGGEKTTVLVRVELYLEDTEVVELPDFVFTDLTEEQVLEEVRKLGLPDNVKVEIIPLPASAGGSAGG [r6_88_TrMRF] | 2.53 ± 0.073 | 2.46 ± 0.11 | 2.47 ± 0.11 |
| SAGGSAGGELELELTVRLPNGLEVRIRARVKFDEETNEWTITEIEIEIRPLPPPPVLDKDGKLVSAGGSAGG [r6_506_TrROS_Hall] | 3.24 ± 0.19 | 3.04 ± 0.31 | 2.93 ± 0.47 |
| SAGGSAGGETITVKVKIKNEDGEEIEVEAEVTKNKDGSYTITIKNKETGETKVVPNATIEEVEPSAGGSAGG [r6_254_TrROS_Hall] | 1.59 ± 0.12 | 2.19 ± 0.18 | 1.93 ± 0.18 |
| SAGGSAGGGDLVVYRLEVRRFEPGTGRLVETRSRTVVVPKEDLPELLERIPPGYEVLRIEAFPESAGGSAGG [r6_776_TrMRF] | 0.636 ± 0.067 | 0.361 ± 0.16 | 0.494 ± 0.11 |
| SAGGSAGGGFVTIEVEITEVVGKTKDEEGKPHPGDPNDPSGYVKLPPFPVKVPSSPEEYAALLSSAGGSAGG [r6_219_JUSTAS] | 0.551 ± 0.076 | -0.31 ± 0.62 | 0.301 ± 0.16 |
| SAGGSAGGGIEEELRRVLPEDATVTIEEVPERPLLVVTVTFPERAETRTFTFSPESPEKLIEALSAGGSAGG [r6_612_JUSTAS] | 0.82 ± 0.049 | 0.628 ± 0.12 | 0.679 ± 0.12 |
| SAGGSAGGGITAKEAAELLEKYLKEKGYDYEVKIEEVDPVNPTVKITVTFPDGSKLEITLPIVDSAGGSAGG [r6_617_TrMRF] | 3.02 ± 0.16 | 3.21 ± 0.34 | 3.09 ± 0.2 |
| SAGGSAGGGKVKVELEPLEDDSYRLRITVELPDGSKIEKPVILPSNVPPELSAEKVAEEILKKESAGGSAGG [r6_895_TrMRF] | 0.378 ± 0.089 | -0.117 ± 0.34 | 0.228 ± 0.24 |
| SAGGSAGGGMGPASFYIVTVDPNNPNVTKVESLSPSVDISLYRKKPFPIKTFSASNIEKLLKELSAGGSAGG [r6_864_JUSTAS] | 0.334 ± 0.12 | 0.791 ± 0.18 | 0.619 ± 0.11 |
